{"source": "patent US11702469B2", "about": "“Recombinant EGFL7, EGFL7 antibodies, and uses thereof” (Ohio State Innovation Foundation, priority 2017, dated 2023)", "molecules": {"B1": {"name": "Parsatuzumab: Anti-human EGFL7 therapeutic antibody (Parsatuzumab) obtained from Creative Biolabs; blocking monoclonal antibody (antibody, chains of the INN, looked up, V domains shown)", "VH": "EVQLVESGGGLVQPGGSLRLSCAASGYTFIDYYMNWVRQAPGKGLEWVGDINLDNSGTHYNQKFKGRFTISRDKSKNTAYLQMNSLRAEDTAVYYCAREGVYHDYDDYAMDYWGQGTLVTVSS", "VL": "DIQMTQSPSSLSASVGDRVTITCRTSQSLVHINAITYLHWYQQKPGKAPKLLIYRVSNRFSGVPSRFSGSGSGTDFTLTISSLQPEDFATYYCGQSTHVPLTFGQGTKVEIK"}}, "key": {"[1]": {"system": "CD34+ primary AML patient cells", "assay": "Cell-trace violet (CTV) membrane-labeling retention, quiescence", "type": "cell-based, human", "conditions": "vs unstimulated / IgG1 controls", "description": "FIG. 17A-17C. EGFL7 in LSCs. FIG. 17A. qRT-PCR of EGFL7 in LSC-enriched and non-LSC enriched subpopulations of primary AML patient samples normalized to B-ACTIN. Number of quiescent (CTV^MAX) AML cells treated with FIG. 17B. rEGFL7 or control (vs Unstim). FIG. 17C. anti-EGFL7 (Parsatuzumab) antibody or IgG1 control (vs Unstim). *P<0.05.\nA morphologically homogenous and functionally static blast population present in the BM and blood of individual AML patients has now evolved into the current perspective of multiple dynamic and heterogeneous cell subpopulations which includes the bulk blast population and the relatively rare leukemia initiating cells (LICs) also referred to as LSCs. Thus, targeting both LSCs and bulk blasts is necessary for complete eradication of the disease. To determine whether EGFL7 has a role in LCS, the LSC-enriched population was first determined within each AML patient sample using long-term colony initiating cell (LTC-IC) assays. […] Next, to determine whether EGFL7 has a role in LSC function, CD34+ cells were isolated and stimulated them with rEGFL7 protein and performed LTC-IC assays. […] To determine whether EGFL7 regulates LSC functions such as cellular quiescence, membrane-labeling retention experiments were performed with cell-trace violet dye (CTV). […]"}, "[2]": {"system": "BoyJ recipient mice", "assay": "Competitive repopulation BM transplantation of treated BM", "type": "in vivo", "conditions": "three weeks post-BMT, BM of treated mice vs IgG1 control", "protocol": "FIG. 20A-20B. WT mice were treated with 50 mpk twice weekly of Parsatuzumab (@EGFL7) or IgG1 control. FIG. 20A. CBCs from mice harvested after treatment. FIG. 20B. Percent engraftment of treated BM (CD45.2+) transplanted into BoyJ recipient mice (CD45.1).\nTo assess the toxicity of Parsatuzumab on normal hematopoiesis, wild type (C57Bl/6J) mice were treated with Parsatuzumab (n=4) and IgG1 control (n=4) with the highest dose previously tested at 50 mpk twice a week for two weeks. Parsatuzumab targets both human and mouse EGFL7 protein. After two weeks of treatment, blood, spleen and BM were harvested and full phenotypic characterization was performed to assess toxicity. […] Full immunophenotypic examination of BM populations was also performed (data not shown due to space constraints). […] To functionally test the effect of Parsatuzumab on normal HSPCs, competitive repopulation BM transplantation (BMT) assays and CFU assays were performed. For competitive BMT, 2×10^6 WBM was harvested from Parsatuzumab and IgG1 treated mice (CD45.2) with 2×10^6 BoyJ (CD45.1) WBM and transplanted into lethally irradiated BoyJ recipients."}, "[3]": {"system": "EOL-1 cells", "assay": "EOL-1 AML xenograft in NSG mice", "conditions": "for overall survival: 50 mg/kg intraperitoneal, three times per week, 4 mice per group, vs IgG1 control", "procedure": "(FIG. 25A) Overall survival of transplanted NSG mice which were treated with Parsatuzumab or IgG1 control (4 mice per group; dosage 50 mg/kg intraperitoneal injected). […] (FIG. 25B) HES-1 levels were measured after in vivo treatment with Parsatuzumab and IgG1 control, GAPDH was used as loading control.\nAll studies using animals were carried out in accordance with the OSU institutional guidelines for animal care and under protocols approved by the OSU Institutional Animal Care and Use Committee. All mice used in the experiments were between 8 and 10 weeks of age. Female NOD-scid IL2Rg^null (NSG) mice were transplanted with 10×10^6 EOL-1 cells. Two weeks post-transplant mice were treated with Parsatuzumab or IgG1 control (4 mice per group; dosage 50 mg/kg intraperitoneal), three times per week. Mice were monitored closely for clinical signs of leukemia such as weight loss and hind limb paralysis.\nTwo-tailed student's t tests were performed using GraphPad Prism version 7 (Graphpad Software, San Diego, Calif.) to analyze in vitro and in vivo experiments unless otherwise noted. P values <0.05 were considered significant. Overall survival for the mouse AML xeonograft model was calculated using the Kaplan-Meier method, and survival curves were compared by the log-rank test.\nBriefly, 10×10^6 EOL-1 cells were transplanted into non-conditioned NSG recipient mice. Two weeks post-transplantation, mice were treated with 50 mpk of anti-EGFL7 or IgG1 control antibody three times per week (FIG. 25A)."}}, "note": "Entries after “also recorded” stand apart in the source; their conditions may differ.", "data": [{"molecule": "B1", "values": [{"measurement": "number of quiescent cells (CTV^MAX)", "setting": "[1]", "result": "decrease in the number of quiescent AML cells"}, {"measurement": "donor chimerism / percent engraftment (CD45.1 vs CD45.2)", "setting": "[2]", "result": "no significant differences; also recorded: No significant changes"}, {"measurement": "overall survival", "setting": "[3]", "result": "significant longer overall survival"}, {"measurement": "overall survival", "setting": "[3]; listed as anti-EGFL7", "result": "prolonged survival"}, {"measurement": "HES1 protein (western blots) after in vivo treatment", "setting": "[3]; 50 mpk three times per week, vs IgG1 controls", "result": "increased levels of HES1 protein"}]}]}
